B1: Azoarcus group I ribozyme (parent)
chain: GUGCCUUGCGCCGGGAAACCACGCAAGGGAUGGUGUCAAAUUCGGCGAAACCUAAGCGCCCGCCCGGGCGUAUGGCAACGCCGAGCCAAGCUUCGGCGCCUGCGCCGAUGAAGGUGUAGAGACUAGACGGCACCCACCUAAGGCAAACGCUAUGGUGAAGGCAUAGUCCAGGGAGUGGCGAAAGUCACACAAACCGG

Variants of: B1
Assay: reverse-splicing fitness (ratio to wild type); higher = more active; in vitro selection; Mg2+ level not given
Procedure, shortened: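 An in vitro group I ribozyme library with randomized positions was T7-transcribed and gel-purified. In triplicate, 10 pmol RNA in EPPS pH 7.5 was reacted with 50 pmoles of a 30-nt RNA substrate for 1 h at 37 °C across several added MgCl2 levels (1–48 mM), then stopped with EDTA. Products were reverse transcribed from a substrate-complementary primer, PCR-amplified and sequenced (HiSeq 4000). Fitness is a variant's read proportion after selection over that before, normalised to wild type.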

Variant	reverse-splicing fitness
A111C C169G	0.0716
A111C C169G U176A	0.0217
A111C C169G U176C	0.0355
A111C C169G U176G	0.00725
A111C C169U	0.128
A111C C169U U176A	0.0264
A111C C169U U176C	0.0304
A111C C169U U176G	0.00757
A111C U176A	0.368
A111C U176C	0.38
A111C U176G	0.202
A111G	1.01
A111G A120C	0.806
A111G A120C A145C	0.653
A111G A120C A145C C150A	0.0611
A111G A120C A145C C150A C169A	0.00705
A111G A120C A145C C150A C169A U176A	0.00728
A111G A120C A145C C150A C169A U176C	0.0045
A111G A120C A145C C150A C169A U176G	0.00443
A111G A120C A145C C150A C169G	0.00815
A111G A120C A145C C150A C169G U176A	0.0185
A111G A120C A145C C150A C169G U176C	0.00982
A111G A120C A145C C150A C169G U176G	0.00452
A111G A120C A145C C150A C169U	0.0193

Variant	reverse-splicing fitness
A111G A120C A145C C150A C169U U176A	0.016
A111G A120C A145C C150A C169U U176C	0.012
A111G A120C A145C C150A C169U U176G	0.00433
A111G A120C A145C C150A U176A	0.0376
A111G A120C A145C C150A U176C	0.0404
A111G A120C A145C C150A U176G	0.0123
A111G A120C A145C C150G	0.136
A111G A120C A145C C150G C169A	0.00873
A111G A120C A145C C150G C169A U176A	0.00532
A111G A120C A145C C150G C169A U176C	0.00524
A111G A120C A145C C150G C169A U176G	0.00452
A111G A120C A145C C150G C169G	0.00666
A111G A120C A145C C150G C169G U176A	0.00746
A111G A120C A145C C150G C169G U176C	0.00487
A111G A120C A145C C150G C169G U176G	0.0036
A111G A120C A145C C150G C169U	0.0377
A111G A120C A145C C150G C169U U176A	0.00771
A111G A120C A145C C150G C169U U176C	0.0127
A111G A120C A145C C150G C169U U176G	0.0038
A111G A120C A145C C150G U176A	0.0148
A111G A120C A145C C150G U176C	0.0508
A111G A120C A145C C150G U176G	0.00421
A111G A120C A145C C150U	0.298
A111G A120C A145C C150U C169A	0.00825

Variant	reverse-splicing fitness
A111G A120C A145C C150U C169A U176A	0.00824
A111G A120C A145C C150U C169A U176C	0.00426
A111G A120C A145C C150U C169A U176G	0.00419
A111G A120C A145C C150U C169G	0.00938
A111G A120C A145C C150U C169G U176A	0.0186
A111G A120C A145C C150U C169G U176C	0.00855
A111G A120C A145C C150U C169G U176G	0.0049
A111G A120C A145C C150U C169U	0.0786
A111G A120C A145C C150U C169U U176A	0.0273
A111G A120C A145C C150U C169U U176C	0.0214
A111G A120C A145C C150U C169U U176G	0.00415
A111G A120C A145C C150U U176A	0.17
A111G A120C A145C C150U U176C	0.158
A111G A120C A145C C150U U176G	0.05
A111G A120C A145C C169A	0.0128
A111G A120C A145C C169A U176A	0.0086
A111G A120C A145C C169A U176C	0.00508
A111G A120C A145C C169A U176G	0.00335
A111G A120C A145C C169G	0.0105
A111G A120C A145C C169G U176A	0.0167
A111G A120C A145C C169G U176C	0.00881
A111G A120C A145C C169G U176G	0.00352
A111G A120C A145C C169U	0.223
A111G A120C A145C C169U U176A	0.0611

Variant	reverse-splicing fitness
A111G A120C A145C C169U U176C	0.061
A111G A120C A145C C169U U176G	0.00718
A111G A120C A145C U176A	0.42
A111G A120C A145C U176C	0.419
A111G A120C A145C U176G	0.129
A111G A120C A145G	0.688
A111G A120C A145G C150A	0.166
A111G A120C A145G C150A C169A	0.0114
A111G A120C A145G C150A C169A U176A	0.0185
A111G A120C A145G C150A C169A U176C	0.0181
A111G A120C A145G C150A C169A U176G	0.00507
A111G A120C A145G C150A C169G	0.0108
A111G A120C A145G C150A C169G U176A	0.0231
A111G A120C A145G C150A C169G U176C	0.0221
A111G A120C A145G C150A C169G U176G	0.00551
A111G A120C A145G C150A C169U	0.0508
A111G A120C A145G C150A C169U U176A	0.0243
A111G A120C A145G C150A C169U U176C	0.0231
A111G A120C A145G C150A C169U U176G	0.00549
A111G A120C A145G C150A U176A	0.0804
A111G A120C A145G C150A U176C	0.0998
A111G A120C A145G C150A U176G	0.0203
A111G A120C A145G C150G	0.0893
A111G A120C A145G C150G C169A	0.00936

Variant	reverse-splicing fitness
A111G A120C A145G C150G C169A U176A	0.00955
A111G A120C A145G C150G C169A U176C	0.0102
A111G A120C A145G C150G C169A U176G	0.00623
A111G A120C A145G C150G C169G	0.0082
A111G A120C A145G C150G C169G U176A	0.00741
A111G A120C A145G C150G C169G U176C	0.00529
A111G A120C A145G C150G C169G U176G	0.00503
A111G A120C A145G C150G C169U	0.0255
A111G A120C A145G C150G C169U U176A	0.00706
A111G A120C A145G C150G C169U U176C	0.0116
A111G A120C A145G C150G C169U U176G	0.00458
A111G A120C A145G C150G U176A	0.0105
A111G A120C A145G C150G U176C	0.0262
A111G A120C A145G C150G U176G	0.00497
A111G A120C A145G C150U	0.582
A111G A120C A145G C150U C169A	0.0158
A111G A120C A145G C150U C169A U176A	0.016
A111G A120C A145G C150U C169A U176C	0.0149
A111G A120C A145G C150U C169A U176G	0.00456
A111G A120C A145G C150U C169G	0.0142
A111G A120C A145G C150U C169G U176A	0.0195
A111G A120C A145G C150U C169G U176C	0.0192
A111G A120C A145G C150U C169G U176G	0.00469
A111G A120C A145G C150U C169U	0.224

Variant	reverse-splicing fitness
A111G A120C A145G C150U C169U U176A	0.0456
A111G A120C A145G C150U C169U U176C	0.0607
A111G A120C A145G C150U C169U U176G	0.00537
A111G A120C A145G C150U U176A	0.287
A111G A120C A145G C150U U176C	0.316
A111G A120C A145G C150U U176G	0.0682
A111G A120C A145G C169A	0.0165
A111G A120C A145G C169A U176A	0.0173
A111G A120C A145G C169A U176C	0.0197
A111G A120C A145G C169A U176G	0.00366
A111G A120C A145G C169G	0.0121
A111G A120C A145G C169G U176A	0.019
A111G A120C A145G C169G U176C	0.0194
A111G A120C A145G C169G U176G	0.00387
A111G A120C A145G C169U	0.254
A111G A120C A145G C169U U176A	0.064
A111G A120C A145G C169U U176C	0.0832
A111G A120C A145G C169U U176G	0.00613
A111G A120C A145G U176A	0.457
A111G A120C A145G U176C	0.44
A111G A120C A145G U176G	0.0972
A111G A120C A145U	0.745
A111G A120C A145U C150A	0.111
A111G A120C A145U C150A C169A	0.00758

Variant	reverse-splicing fitness
A111G A120C A145U C150A C169A U176A	0.0107
A111G A120C A145U C150A C169A U176C	0.00676
A111G A120C A145U C150A C169A U176G	0.00401
A111G A120C A145U C150A C169G	0.00748
A111G A120C A145U C150A C169G U176A	0.0144
A111G A120C A145U C150A C169G U176C	0.011
A111G A120C A145U C150A C169G U176G	0.00393
A111G A120C A145U C150A C169U	0.033
A111G A120C A145U C150A C169U U176A	0.0204
A111G A120C A145U C150A C169U U176C	0.0177
A111G A120C A145U C150A C169U U176G	0.00505
A111G A120C A145U C150A U176A	0.0685
A111G A120C A145U C150A U176C	0.0741
A111G A120C A145U C150A U176G	0.024
A111G A120C A145U C150G	0.12
A111G A120C A145U C150G C169A	0.00821
A111G A120C A145U C150G C169A U176A	0.00723
A111G A120C A145U C150G C169A U176C	0.00745
A111G A120C A145U C150G C169A U176G	0.00414
A111G A120C A145U C150G C169G	0.00597
A111G A120C A145U C150G C169G U176A	0.00655
A111G A120C A145U C150G C169G U176C	0.00451
A111G A120C A145U C150G C169G U176G	0.00416
